Test system: MS2 coat protein
Assay: apparent KD of MS2 coat protein; designed switch direction (-1 OFF switch, 1 ON switch): -1; higher = weaker reporter binding
Procedure, shortened: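 The reported apparent KD is a per-design median over clusters, from curve fits of normalised cluster fluorescence. Protein titrations used SNAP-549-labelled MS2 coat protein, doubled from 0.7 or 1.5 nM to 3 µM, in Tris-HCl pH 7.5 buffer with KCl, MgCl2, BSA, DTT, tRNA and Tween-20, with no input, 200 uM small-molecule ligand, or an oligonucleotide input. The RNA switches were transcribed on Illumina chips by stalled E. coli RNA polymerase.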

[1] = input ligand: microRNA oligo, concentration not stated

Sequence | apparent KD of MS2 coat protein (input ligand: FMN 200 uM) [nM] | apparent KD of MS2 coat protein [1] [nM] | apparent KD of MS2 coat protein (input ligand: none) [nM] | apparent KD of MS2 coat protein (Eterna round: R95, input ligand: FMN 200 uM) [nM] | apparent KD of MS2 coat protein (Eterna round: R95, input ligand: microRNA oligo, concentration not stated) [nM] | apparent KD of MS2 coat protein (Eterna round: R95, input ligand: none) [nM]
ACAUGAGGAUCACCCAUGUGGGUUCUCCAGCAUAAUAAGAGGUAGGAUAUGCAGUCGCCGAAGGAGCAGAAGGACCGCGUUUAU [Eternabot solution 50] (Eterna round: R96, puzzle: Exclusion NG 3) | 67.1 | 29.7 | 43.5 |  |  | 
ACAUGAGGAUCACCCAUGUUUGGCUGGUUCUCUCCGGCUGUCGAGGAUAUAGUCCGGUAUCCGCGCUAGAAGGUGAGGGCUGGC [Aenatbe mod 6] (Eterna round: R96, puzzle: Exclusion NG 3) | 17 | 12.3 | 16.1 |  |  | 
ACAUGCUAGUAGGAUAUCGUACGCCGAAUAGUAUGAGAAGGAUUGACAUGAGGAUCACCCAUGUGAUGCCUGAA [Quveedes] (Eterna round: R97, puzzle: Exclusion 6) | 22 |  | 18.7 |  |  | 
ACAUGUAAUGCAGGAUAUUUGACACAUGAGGAUCACCCAUGUGACCAGAGGAAUUGCUAUGAGUCGAAGAAGGGUAUGUACAUG [Ex NG2 #55] (Eterna round: R96, puzzle: Exclusion NG 2) | 56.2 | 44.7 | 42.9 |  |  | 
ACAUGUCAUCGAGGAUAUUGCACACAUGAGGAUCACCCAUGUAUUCGGUUGCUCUCGCGUGAGUUCGAGAAGGCGAUGUACAUU [Ex NG2 #84] (Eterna round: R96, puzzle: Exclusion NG 2) | 276 | 36.6 | 48.9 |  |  | 
ACAUGUCAUUGAGGAUAUCGCACACAUGAGGAUCACCCAUGUAAACAGAUGCUCAUAAGUGGGUUCGAGAAGGCGAUGUACAUU [Ex NG2 #100] (Eterna round: R96, puzzle: Exclusion NG 2) | 318 | 119 | 117 |  |  | 
ACAUGUCAUUGAGGAUAUUGCAAACAUGAGGAUCACCCAUGUAUACGGAUGCUCUUACGUGAGUUCGAGAAGGCGAUGUACAUU [Ex NG2 #91] (Eterna round: R96, puzzle: Exclusion NG 2) | 99.7 | 39.7 | 46.2 |  |  | 
ACAUGUGUUGUAGGAUAUAGGAUACAUGAGGAUCACCCAUGUGGAUUCAUGUCAAAGGAAACGUCCUAGAAGGACGACAACAUG [Ex NG2 #23] (Eterna round: R96, puzzle: Exclusion NG 2) | 176 | 53.2 | 84.3 |  |  | 
ACAUGUUAUGUAGGAUAUUAGACACAUGAGGAUCACCCAUGUAACCGGAGGCUUUACUAUGAGUUUGAGAAGGGUAUGAACAUG [Ex NG2 #66] (Eterna round: R96, puzzle: Exclusion NG 2) | 78.1 | 45.4 | 92.1 |  |  | 
ACAUGUUGCGCAGGAUAUGGGACACAUGAGGAUCACCCAUGUGGUUUCAUGUCUAACCAAGCGUCCCAGAAGGGCGUGAACAUG [Ex NG2 #30] (Eterna round: R96, puzzle: Exclusion NG 2) | 41.8 | 20.8 | 19.9 |  |  | 
ACAUUACAUGAGGAUCACCCAUGUGAGGAUAUGGAGCGAUAGUGUCCUGUCGCGUACACCAGAAGGCGCGGGUG [1st #49] (Eterna round: R97, puzzle: Exclusion 1) | 242 |  | 271 |  |  | 
ACCCGCACAAGCACCAGAGACAUGAGGAUCACCCAUGUAUAGUCGCACUAGGGUCUCUCUAGUCUAGCCGUUCGUCA [Eternabot (Original) Solution 44] (Eterna round: R97, puzzle: Sensor, turn-off variant 1) | 90.4 |  | 213 |  |  | 
ACCUAACAUGAGGAUCACCCAUGUCAGGAUAUCCGGCCUAUGGAAACAUAGGAAGAACGGAGAAGGGACAGAGG [ChP 04-04-2015 #9] (puzzle: Exclusion 1) |  |  |  | 69.5 | 35 | 43.1
ACCUAACAUGAGGAUCACCCAUGUGAGGAUAUGUACAUCGGCUCGCGAAAGUGACCGAACAGAAGGUACAUGGU [EX1 A.26] (Eterna round: R97, puzzle: Exclusion 1) | 17.8 |  | 19.1 |  |  | 
ACCUAUGAGGAGGAUAUACGGUGCGAAAGGAUGGUAGAAGGCUUCACAUGAGGAUCACCCAUGUCUAUAAGCGA [EX6 #87] (Eterna round: R97, puzzle: Exclusion 6) | 27.8 |  | 18.3 |  |  | 
